Here are results for 32 substances from patent publication US20160060360A1.

For one assay, the target named is recombinant human FcγRIIb protein (R&D Systems) (human) (UniProt P31994). The assay is described as follows: SPR (Biacore 3000), antibody captured on protein A/G chip, FcγR injected, 1:1 Langmuir fit.
Chain of recombinant human FcγRIIb protein (R&D Systems) (human) (P31994 46-217 limits assumed): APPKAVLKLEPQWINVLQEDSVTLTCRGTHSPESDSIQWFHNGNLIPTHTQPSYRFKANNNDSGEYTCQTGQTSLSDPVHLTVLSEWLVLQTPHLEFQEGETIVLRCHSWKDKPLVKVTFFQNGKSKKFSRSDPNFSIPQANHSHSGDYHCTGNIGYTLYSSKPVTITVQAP
Consider “anti-CD19 antibody HuAM4G7, WT (native) IgG1”, for which the Kd turned out to be 1800 nM.

In a further assay the target is FcγRIIaR. The assay is described as follows: SPR. A general note: SPR reads the build-up and loss of mass on a sensor chip optically.
D265E yielded a Kd of 2790 nM.

H268N came in with a Kd of 481 nM.

The substance A327G registered a Kd of 2690 nM.

Substance S267E/L328I yielded a Kd of 11.6 nM.

In turn, S267E/H268E/L328F gave a Kd of 3.4 nM.

A327Q: the Kd is 1350 nM.

For S298D, the Kd is 592 nM.

In the case of L328F, the Kd was determined as 166 nM.

For H268Q, the equilibrium dissociation constant (Kd) was found to be 544 nM.

Substance S267E/A327D gave a Kd of 51.3 nM.

A327D: the Kd was 536 nM.

Substance S267E/L328Y gave a Kd of 7.06 nM.

Substance S239Q displayed a Kd of 1010 nM.

Regarding S267E/L328H, the Kd came out at 185 nM.

V266D gave a Kd of 1220 nM.

Consider S239E, for which the Kd was determined as 1250 nM.

Take A327N: the Kd stood at 1410 nM.

With S267A, the Kd came out at 200 nM.

In the case of V266M, the Kd is 274 nM.

Take P329E: the Kd stood at 10000 nM.

Substance V266M/S267E had a Kd of 28 nM.

On to S267E, for which the Kd worked out at 29.1 nM.

In turn, S239D/S267E/L328F displayed a Kd of 2.06 nM.

S267E/N325L: the Kd came out at 20.7 nM.

S267E/H268E displayed a Kd of 20.6 nM.

Consider H268E, for which the Kd worked out at 269 nM.

On to S267D, for which the Kd is 95.5 nM.

Regarding S267G, the Kd worked out at 517 nM.

The substance S239N yielded a Kd of 990 nM.

H268D came in with a dissociation constant Kd of 205 nM.

Substance S267E/A327E returned a Kd of 29.3 nM.

A further assay deals with FcγRIIIaF. The assay is described as follows: SPR.
Substance L328F had a Kd of 5.11 µM.

The target of a further assay is recombinant human FcγRIIb protein (R&D Systems) (human) (UniProt P31994). Nature of the assay: Biacore, 'according to the data herein'.
As for “anti-CD19 antibody HuAM4G7, WT (native) IgG1”, the Kd was 2000 nM.

Usually Kd stands for the concentration at which binding is half-saturated.
